Laboratory results reported in EP4454706A1 (Universität Stuttgart, dated 2024).

Key:
[1] = biological target: T1, human EGFR (aa 1 - 1,210), on cells (human, UniProt P00533 25-1210); experiment: cell-based or functional assay
[2] = biological target: T1, human EGFR (aa 1 - 1,210), on cells; experiment: flow cytometry, FaDu cells
[3] = biological target: T2, CD3 on Jurkat cells (human, UniProt P07766 23-207); experiment: flow cytometry, Jurkat cells
T2 construct: whole, on cells; also called CD3-expressing Jurkat

[4] = biological target: T1, human EGFR (aa 1 - 1,210), on cells; experiment: flow cytometry, LIM1215 cells
[5] = biological target: T3, EGFR-moIgG2a-Fc fusion protein comprising the extracellular domain (aa 25 - 645) of human EGFR (human); experiment: ELISA, coated EGFR-moIgG2a-Fc
T3 construct: also called EGFR wt

[6] = biological target: T4, EGFR-His fusion protein comprising the extracellular domain (aa 25 - 645) of human EGFR (human, UniProt P00533 25-645); experiment: BLI (Octet), Fab on FAB2G sensor, EGFR-His in solution
T4 construct: also called His-tagged extracellular domain of EGFR wt

[7] = biological target: T5, His-tagged extracellular domain of EGFR comprising the mutation V441D (human, UniProt P00533 25-645); experiment: as above
T5 construct: See m46; also called V441D (BLI antigen)

[8] = biological target: T6, His-tagged extracellular domain of EGFR comprising the mutation S464L (human, UniProt P00533 25-645); experiment: as above
T6 construct: See m46; also called S464L (BLI antigen)

[9] = biological target: T7, His-tagged extracellular domain of EGFR comprising the mutation G465R (human, UniProt P00533 25-645); experiment: as above
T7 construct: See m46; also called G465R (BLI antigen)

[10] = biological target: T8, His-tagged extracellular domain of EGFR comprising the mutation S492R (human, UniProt P00533 25-645); experiment: as above
T8 construct: See m46; also called S492R (BLI antigen)

[11] = biological target: T4, EGFR-His fusion protein comprising the …; experiment: ELISA, coated EGFR-His
[12] = biological target: T4, EGFR-His fusion protein comprising the …; experiment: ELISA, coated human EGFR
[13] = biological target: T1, human EGFR (aa 1 - 1,210), on cells; experiment: flow cytometry, DiFi cells
[14] = biological target: T1, human EGFR (aa 1 - 1,210), on cells; experiment: flow cytometry, FaDu cells; remark: listed apart in the source
[15] = biological target: T1, human EGFR (aa 1 - 1,210), on cells; experiment: flow cytometry, A431 cells
[16] = biological target: T1, human EGFR (aa 1 - 1,210), on cells; experiment: flow cytometry, DiFi cells; remark: listed apart in the source
[17] = biological target: T1, human EGFR (aa 1 - 1,210), on cells; experiment: flow cytometry, FaDu cells; remark: listed apart in the source
[18] = biological target: T4, EGFR-His fusion protein comprising the …; experiment: ELISA, coated human EGFR-His
[19] = biological target: T9, EGFR-His fusion protein comprising the extracellular domain of murine EGFR (aa 25 - 647) (murine, UniProt Q01279 25-647); experiment: ELISA, coated murine EGFR-His
T9 construct: Bought protein; also called mouse EGFR; Sino Biological 51091-M08H

[20] = biological target: T1, human EGFR (aa 1 - 1,210), on cells; experiment: flow cytometry, LIM1215 cells; remark: listed apart in the source
[21] = biological target: T10, EGFR-His fusion protein comprising the extracellular domain of cynomolgus monkey EGFR (aa 1 - 645) (cynomolgus monkey, UniProt P55245 25-645 (rhesus entry)); experiment: ELISA, coated cynomolgus monkey EGFR-His
T10 construct: Bought protein; also called Sino Biological SIN-90285-C08H-50

[22] = biological target: T3, EGFR-moIgG2a-Fc fusion protein …; experiment: ELISA, coated EGFR-moIgG2a-Fc; remark: listed apart in the source
[23] = biological target: T4, EGFR-His fusion protein comprising the …; experiment: ELISA, coated EGFR-His; remark: listed apart in the source

B1: scDb YU250-H10 x huU3 (bispecific antibody)
chain: QVQLVQSGGGVVQPGGSLRLSCAASGFTFSSYGMHWVRQAPGKGLEWVAFIRYDGSNKYYADSVKGRFTISRDNSKNTLYLQMNSLRAEDTAVYYCAKDGNSGYDSMDYWGQGTLVTVSSGGGGSDIQMTQSPSSLSASVGDRVTITCRASQDIRNYLNWYQQKPGKAPKLLIYYTSRLHSGVPSRFSGSGSGTDFTFTISSLQPEDIATYYCQQGNTLPWTFGQGTKLEIKRGGGGSGGGGSGGGGSQVQLVQSGAEVKKPGSSVKVSCKASGGTFSGYTMNWVRQAPGQGLEWMGLINPYKGVSTYNGKFKDRVTITADKSTSTAYMELSSLRSEDTAVYYCARSGYYGDSDWYFDVWGQGTLVTVSSGGGGSQSVLTQPPSVSGAPGQRVTISCSGGSSNVGRNGVNWFQHLPEKAPKLLIYYDAFLSSGVSDRFSGSKSGTSASLAIRGLQSDDEADYYCAAWDDSLYSWVFGGGTNLTVLAAAGGSGGGGSGGGTGGGGSLHHHHHH
notes: Bivalent single-chain diabody; detected with an anti-His antibody; also called bispecific EGFRxCD3 scDb
IC50 for cytotoxicity, FaDu + PBMCs (E:T 10:1) [1]: 0.0181 nM
IC50 for cytotoxicity, LIM1215 + PBMCs (E:T 10:1) [1]: 0.0602 nM
EC50 [2]: 1.68 nM
EC50 [3]: 7.56 nM
EC50 [4]: 1.02 nM

B2: Fab-His MKU011-A7 (Fab, V domains shown)
VH: QVQLVQSGGGVVQPGGSLRLSCAASGFTFSSYGMHWVRQAPGKGLEWVAFIRYDGSNKYYADSVKGRFTISRDNSKNTLYLQMNSLRAEDTAVYYCAKDGNSGYDSMDYWGQGTLVTVSS
VL: QPVLTQSPSASGTPGQRVTISCSGVSSNIGRNYVYWYQQFPGTAPKLLIYATHQRPSGVPDRFSGSKSGTSASLAISGLRSEDEANYYCAAWDDGVTGWVFGGGTKLTVLG
notes: also called Fab MKU011-A7; His-tagged anti-EGFR Fab MKU011-A7
EC50 [5]: 2.79 nM
Kd [6]: < 100 nM
Kd [7]: < 10000 nM
Kd [8]: < 10000 nM
Kd [9]: < 10000 nM
Kd [10]: < 10000 nM

B3: IgG1 YU250-A02 (antibody, V domains shown)
VH: QVQLQESGGGVVQPGGSLRLSCAASGFTFSSYGMHWVRQAPGKGLEWVAFIRYDGSNKYYADSVKGRFTISRDNSKNTLYLQMNSLRAEDTAVYYCAKDGNSGYDSMDYWGQGTLVTVSS
VL: QSVLTQPPSVSGAPGQRVTISCSGGSSNVGRNGVNWFQHLPEKAPKLLIYYDAFLSSGVSDRFSGSKSGTSASLAIRGLQSEDEADYYCASWDDSLTGWVFGGGTKLTVLG
notes: also called IgG YU250-A02
EC50 [11]: 0.16 nM
EC50 [12]: 0.59 nM
EC50 [13]: 0.64 nM
EC50 [14]: 0.23 nM
EC50 [15]: 1.24 nM
EC50 [16]: 0.64 nM
EC50 [17]: 0.26 nM
EC50 [18]: 0.36 nM
EC50 [19]: 0.38 nM
EC50 [20]: 0.09 nM
EC50 [21]: 0.69 nM

B4: IgG1 MKU011-A7 (antibody, V domains shown)
VH: QVQLVQSGGGVVQPGGSLRLSCAASGFTFSSYGMHWVRQAPGKGLEWVAFIRYDGSNKYYADSVKGRFTISRDNSKNTLYLQMNSLRAEDTAVYYCAKDGNSGYDSMDYWGQGTLVTVSS
VL: QPVLTQSPSASGTPGQRVTISCSGVSSNIGRNYVYWYQQFPGTAPKLLIYATHQRPSGVPDRFSGSKSGTSASLAISGLRSEDEANYYCAAWDDGVTGWVFGGGTKLTVLG
notes: Fully human IgG1; also called IgG MKU011-A7; IgG MKU-011-A07
EC50 [11]: 0.19 nM
EC50 [13]: 0.81 nM
EC50 [14]: 0.35 nM
EC50 [5]: 0.32 nM

B5: Fab-His YU250-A02 (Fab, V domains shown)
VH: QVQLQESGGGVVQPGGSLRLSCAASGFTFSSYGMHWVRQAPGKGLEWVAFIRYDGSNKYYADSVKGRFTISRDNSKNTLYLQMNSLRAEDTAVYYCAKDGNSGYDSMDYWGQGTLVTVSS
VL: QSVLTQPPSVSGAPGQRVTISCSGGSSNVGRNGVNWFQHLPEKAPKLLIYYDAFLSSGVSDRFSGSKSGTSASLAIRGLQSEDEADYYCASWDDSLTGWVFGGGTKLTVLG
notes: Roles inferred as for IgG YU250-A02; also called Fab YU250-A02
Kd [6]: < 100 nM
Kd [7]: < 10000 nM
Kd [8]: < 10000 nM
Kd [9]: < 10000 nM
Kd [10]: < 10000 nM

B6: Fab-His YU250-H10 (Fab, V domains shown)
VH: QVQLVQSGGGVVQPGGSLRLSCAASGFTFSSYGMHWVRQAPGKGLEWVAFIRYDGSNKYYADSVKGRFTISRDNSKNTLYLQMNSLRAEDTAVYYCAKDGNSGYDSMDYWGQGTLVTVSS
VL: QSVLTQPPSVSGAPGQRVTISCSGGSSNVGRNGVNWFQHLPEKAPKLLIYYDAFLSSGVSDRFSGSKSGTSASLAIRGLQSDDEADYYCAAWDDSLYSWVFGGGTNLTVLG
notes: T0001 gives '6 and 8' and '9 and 11' for Fab-His YU250-H10; Roles inferred; also called Fab YU250-H10
fold increased binding against Fab-His MKU011-A7 [22]: 4.7 fold
EC50 [5]: 0.59 nM
Kd [6]: < 100 nM
Kd [7]: < 10000 nM
Kd [8]: < 10000 nM
Kd [9]: < 10000 nM
Kd [10]: < 10000 nM

B7: IgG YU250-H10 wt (parental antibody of Example 5) (antibody)
light: QSVLTQPPSVSGAPGQRVTISCSGGSSNVGRNGVNWFQHLPEKAPKLLIYYDAFLSSGVSDRFSGSKSGTSASLAIRGLQSDDEADYYCAAWDDSLYSWVFGGGTNLTVLGQPKAAPSVTLFPPSSEELQANKATLVCLISDFYPGAVTVAWKADSSPVKAGVETTTPSKQSNNKYAASSYLSLTPEQWKSHRSYSCQVTHEGSTVEKTVAPTECS
heavy: not shown
notes: kept as a molecule of its own; Roles inferred
EC50 [23]: 0.49 nM

B8: IgG YU250-H10 variant VL N126K (antibody)
light: QSVLTQPPSVSGAPGQRVTISCSGGSSNVGRNGVNWFQHLPEKAPKLLIYYDAFLSSGVSDRFSGSKSGTSASLAIRGLQSDDEADYYCAAWDDSLYSWVFGGGTKLTVLGQPKAAPSVTLFPPSSEELQANKATLVCLISDFYPGAVTVAWKADSSPVKAGVETTTPSKQSNNKYAASSYLSLTPEQWKSHRSYSCQVTHEGSTVEKTVAPTECS
heavy: not shown
notes: Potential glycosylation site in VL deleted (N126K); Roles inferred; also called VL N1216K
EC50 [23]: 0.53 nM

B9: scDb-YU250-H10 x huU3-scFv-YU250-H10 (bispecific antibody)
chain: QVQLVQSGGGVVQPGGSLRLSCAASGFTFSSYGMHWVRQAPGKGLEWVAFIRYDGSNKYYADSVKGRFTISRDNSKNTLYLQMNSLRAEDTAVYYCAKDGNSGYDSMDYWGQGTLVTVSSGGGGSDIQMTQSPSSLSASVGDRVTITCRASQDIRNYLNWYQQKPGKAPKLLIYYTSRLHSGVPSRFSGSGSGTDFTFTISSLQPEDIATYYCQQGNTLPWTFGQGTKLEIKRGGGGSGGGGSGGGGSQVQLVQSGAEVKKPGSSVKVSCKASGGTFSGYTMNWVRQAPGQGLEWMGLINPYKGVSTYNGKFKDRVTITADKSTSTAYMELSSLRSEDTAVYYCARSGYYGDSDWYFDVWGQGTLVTVSSGGGGSQSVLTQPPSVSGAPGQRVTISCSGGSSNVGRNGVNWFQHLPEKAPKLLIYYDAFLSSGVSDRFSGSKSGTSASLAIRGLQSDDEADYYCAAWDDSLYSWVFGGGTNLTVLAAAGGSGGGGSGGGTQVQLVQSGGGVVQPGGSLRLSCAASGFTFSSYGMHWVRQAPGKGLEWVAFIRYDGSNKYYADSVKGRFTISRDNSKNTLYLQMNSLRAEDTAVYYCAKDGNSGYDSMDYWGQGTLVTVSSGGGGSGGGGSGGGGSQSVLTQPPSVSGAPGQRVTISCSGGSSNVGRNGVNWFQHLPEKAPKLLIYYDAFLSSGVSDRFSGSKSGTSASLAIRGLQSDDEADYYCAAWDDSLYSWVFGGGTNLTVLGSLHHHHHH
notes: Trivalent; detected with an anti-His antibody; also called scDb-scFv; bispecific trivalent EGFRxCD3 scDb-scFv
IC50 for cytotoxicity, FaDu + PBMCs (E:T 10:1) [1]: 0.0044 nM
IC50 for cytotoxicity, LIM1215 + PBMCs (E:T 10:1) [1]: 0.004 nM
EC50 [2]: 0.74 nM
EC50 [3]: > 10 nM
EC50 [4]: 0.31 nM
